The target of the experiment is T1, His-PTPN23 (UniProt Q9H3S7 1-1636).
T1 construct: PTPN23 cDNA amplified and subcloned to pVL1392 with a His-tag; also called baculovirally purified PTPN23; source: baculovirus, purified (Ni-Sepharose beads, eluted with imidazole)
As to the kind of experiment: pull-down; GST-WDR4 bound on glutathione beads incubated with purified PTPN23 or PTPN23 segments; binding buffer 50 mM Tris-HCl pH 7.5, 150 mM NaCl, 1% NP-40; bound proteins by Western blot. As to conditions: both partners purified. A general note: A western blot detects proteins with antibodies after separation by electrophoresis.

T1 sequence (Q9H3S7 whole entry): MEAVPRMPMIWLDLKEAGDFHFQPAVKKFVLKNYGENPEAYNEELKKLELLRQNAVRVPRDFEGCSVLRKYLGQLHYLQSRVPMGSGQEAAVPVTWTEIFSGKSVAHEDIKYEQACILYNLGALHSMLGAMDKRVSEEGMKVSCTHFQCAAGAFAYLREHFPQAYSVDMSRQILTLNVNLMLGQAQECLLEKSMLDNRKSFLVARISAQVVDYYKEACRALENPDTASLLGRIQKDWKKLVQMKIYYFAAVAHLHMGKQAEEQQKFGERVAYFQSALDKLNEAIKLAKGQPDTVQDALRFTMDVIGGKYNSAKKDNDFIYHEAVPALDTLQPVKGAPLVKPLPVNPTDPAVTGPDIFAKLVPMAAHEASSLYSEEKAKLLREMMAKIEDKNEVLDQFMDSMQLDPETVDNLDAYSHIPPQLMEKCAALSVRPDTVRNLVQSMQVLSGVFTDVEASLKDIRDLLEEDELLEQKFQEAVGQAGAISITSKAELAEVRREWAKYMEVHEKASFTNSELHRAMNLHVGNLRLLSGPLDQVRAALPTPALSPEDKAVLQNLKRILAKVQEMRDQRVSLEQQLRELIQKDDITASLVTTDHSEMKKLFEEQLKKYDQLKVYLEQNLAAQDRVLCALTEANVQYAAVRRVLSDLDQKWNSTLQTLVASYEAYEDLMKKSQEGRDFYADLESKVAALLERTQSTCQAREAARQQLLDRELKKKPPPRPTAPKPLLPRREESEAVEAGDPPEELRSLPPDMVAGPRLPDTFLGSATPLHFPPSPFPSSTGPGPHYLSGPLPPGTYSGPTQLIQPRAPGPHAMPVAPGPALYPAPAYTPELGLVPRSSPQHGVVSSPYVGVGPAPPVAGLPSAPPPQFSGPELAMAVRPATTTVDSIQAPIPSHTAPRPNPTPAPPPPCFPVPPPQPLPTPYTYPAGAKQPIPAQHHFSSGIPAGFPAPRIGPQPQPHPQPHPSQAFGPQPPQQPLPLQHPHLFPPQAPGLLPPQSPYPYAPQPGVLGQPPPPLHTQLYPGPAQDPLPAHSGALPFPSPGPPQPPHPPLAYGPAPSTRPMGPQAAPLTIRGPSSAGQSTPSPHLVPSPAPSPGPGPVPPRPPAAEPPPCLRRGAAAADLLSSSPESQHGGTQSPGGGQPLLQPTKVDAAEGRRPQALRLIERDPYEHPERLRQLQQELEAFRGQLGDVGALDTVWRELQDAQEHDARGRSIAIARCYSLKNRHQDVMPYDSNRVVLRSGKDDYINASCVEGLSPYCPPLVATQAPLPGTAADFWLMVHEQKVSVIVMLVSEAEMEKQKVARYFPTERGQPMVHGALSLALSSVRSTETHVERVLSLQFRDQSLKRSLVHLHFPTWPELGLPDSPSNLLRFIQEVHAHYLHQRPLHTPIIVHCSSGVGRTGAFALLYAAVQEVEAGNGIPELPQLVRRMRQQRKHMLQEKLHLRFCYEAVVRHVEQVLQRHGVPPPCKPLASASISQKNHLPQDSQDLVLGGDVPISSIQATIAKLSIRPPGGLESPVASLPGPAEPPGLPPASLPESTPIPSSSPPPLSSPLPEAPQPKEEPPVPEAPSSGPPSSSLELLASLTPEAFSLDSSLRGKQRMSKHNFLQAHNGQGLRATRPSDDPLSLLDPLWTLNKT

B1: GST-WDR4 (natural protein, UniProt P57081 1-412, looked up)
chain: MAGSVGLALCGQTLVVRGGSRFLATSIASSDDDSLFIYDCSAAEKKSQENKGEDAPLDQGSGAILASTFSKSGSYFALTDDSKRLILFRTKPWQCLSVRTVARRCTALTFIASEEKVLVADKSGDVYSFSVLEPHGCGRLELGHLSMLLDVAVSPDDRFILTADRDEKIRVSWAAAPHSIESFCLGHTEFVSRISVVPTQPGLLLSSSGDGTLRLWEYRSGRQLHCCHLASLQELVDPQAPQKFAASRIAFWCQENCVALLCDGTPVVYIFQLDARRQQLVYRQQLAFQHQVWDVAFEETQGLWVLQDCQEAPLVLYRPVGDQWQSVPESTVLKKVSGVLRGNWAMLEGSAGADASFSSLYKATFDNVTSYLKKKEERLQQQLEKKQRRRSPPPGPDGHAKKMRPGEATLSC
notes: WDR4 cDNA amplified by PCR and cloned to pGEX-4T-1; pGEX-4T-1 would place GST at the N-terminus (surmised from the vector); also called bacterially purified GST-WDR4
On to B1, for which the binding result is given as “binds”.

Source of the values: paper PMC10567730, “PTPN23 ubiquitination by WDR4 suppresses EGFR and c-MET degradation to define a lung cancer therapeutic target” (Cell Death & Disease, 2023).
